Reference: patent US20250092154A1 (UCI THERAPEUTICS, published 2025)

B1: humanized antibody #19-1 (#19-1 scFv-Fc) (Fc fusion)
scFv: EIVLTQSPATLSLSPGERATLSCSASSSVSYMHWYQQKPGQAPRLLIYDTSKLASGIPARFSGSGSGTDFTLTISSLEPEDFAVYYCQQWSSNPLTFGQGTKLEIKRGGGGSGGGGSGGGGSQVQLVQSGAEVKKPGASVKVSCKASGYTFTDYNMNWVRQAPGQGLEWMGVINPNYGTTSYNQKFKGRVTMTRDTSTSTVYMELSSLRSEDTAVYYCARGDYDGAGFAYWGQGTLVTVSS
notes: Expressed in ExpiCHO as #19-1 scFv-Fc and purified by protein A and SEC; also called humanized scFv #19-1; scFv antibody #19-1; not shown: Human IgG-Fc tag fused C-terminal to the scFv, and any hinge or linker to it
B2: mesothelin-specific scFv #45 (purified from E. coli) (scFv)
scFv: DIVLTQSPAIMSTSPGEKVTMTCTASSSVSYMHWYQQKSGTSPKRWIYDTSKLASGVPARFSGSGSGTSYSLTISRMEAEDAATYYCQQWSSYPLTFGAGTKLEMKRGGGGSGGGGSGGGGSQVQLQQPGAELVKPGASVKLSCKASGYTFTSYWMHWVKQRPGQGLEWIGMIHPNSGGTNYNEKFKSKATLTVDKSSSTAYMQLSSLTSEDSAVYYCARYYYGNYVWYFDVWGTGTTVTVSA
notes: also called anti-MSLN scFv; not shown: His tag (Ni-NTA purification, anti-HISx6 detection) and any other pmopac12 vector tag
B3: mesothelin-specific CAR comprising humanized scFv #19-1, on cells (293T cells; PBNK cells) (receptor)
chain: EIVLTQSPATLSLSPGERATLSCSASSSVSYMHWYQQKPGQAPRLLIYDTSKLASGIPARFSGSGSGTDFTLTISSLEPEDFAVYYCQQWSSNPLTFGQGTKLEIKRGGGGSGGGGSGGGGSQVQLVQSGAEVKKPGASVKVSCKASGYTFTDYNMNWVRQAPGQGLEWMGVINPNYGTTSYNQKFKGRVTMTRDTSTSTVYMELSSLRSEDTAVYYCARGDYDGAGFAYWGQGTLVTVSSTTTPAPRPPTPAPTIASQPLSLRPEACRPAAGGAVHTRGLDFACDIYIWAPLAGTCGVLLLSLVITLYCKRGRKKLLYIFKQPFMRPVQTTQEEDGCSCRFPEEEEGGCELRVKFSRSADAPAYKQGQNQLYNELNLGRREEYDVLDKRRGRDPEMGGKPRRKNPQEGLYNELQKDKMAEAYSEIGMKGERRRGKGHDGLYQGLSTATKDTYDALHMQALPPR
notes: also called #19-1 CAR; MSLN-CAR
B4: mesothelin-specific scFv #19 (purified from E. coli) (scFv)
scFv: DIVITQSPAIMSASPGEKVTMTCSASSSVSYMHWYQQKSGTSPKRWIYDTSKLASGVPARFSGSGSGTSYSLTISSMEAEDAATYYCQQWSSNPLTFGAGTKLEIKRGGGGSGGGGSGGGGSQVQLQQSGPELVKPGASVKISCKASGYSFTDYNMNWVKQSNGKSLEWIGVINPNYGTTSYNQKFKGKATITADTSSNTAYLQLSSLTSEDSAVYYCAKGDYDGAGFAYWGQGTLVTVSA
notes: also called mouse scFv #19; anti-MSLN scFv; not shown: His tag (Ni-NTA purification, anti-HISx6 detection) and any other pmopac12 vector tag

Experiments:
[1] = molecular target: T1, recombinant human mature MSLN (SEQ ID NO: 1) (human, UniProt Q13421 296-598); assay: SPR, mature MSLN immobilized on CM5 chip, #19-1 scFv-Fc injected in two-fold dilutions, 1:1 depletion corrected binding model
T1 construct: Immobilized by amide coupling on a CM5 chip for SPR; also called mesothelin; recombinant human mesothelin protein antigen
T1 sequence (Q13421 other isoform, or with tags, fused parts or gaps limits assumed): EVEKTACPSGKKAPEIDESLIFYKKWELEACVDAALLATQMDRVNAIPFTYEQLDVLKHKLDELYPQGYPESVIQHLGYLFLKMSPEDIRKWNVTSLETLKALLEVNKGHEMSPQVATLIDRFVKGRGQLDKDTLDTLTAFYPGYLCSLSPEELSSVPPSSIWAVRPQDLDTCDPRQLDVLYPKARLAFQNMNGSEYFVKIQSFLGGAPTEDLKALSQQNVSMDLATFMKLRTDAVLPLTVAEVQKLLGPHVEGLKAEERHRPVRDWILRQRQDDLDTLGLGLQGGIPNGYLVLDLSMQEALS
Description: The binding affinity of the humanized antibody #19-1 purified in Example 6 to mesothelin was evaluated by surface plasmon resonance (SPR) method. First, recombinant human mature MSLN (SEQ ID NO: 1) was immobilized by an amide bond on the surface of a carboxymethyldextran (CM5) chip at densities of about 560 RU and 520 RU. Next, two-fold serial dilutions of humanized antibody #19-1 were injected at a constant flow rate. The association and dissociation rates of the protein complex (complex of humanized antibody #19-1 and mature MSLN) were monitored for 180 and 540 seconds, respectively. Referencing was performed on a blank flow cell. Finally, the binding affinity of humanized antibody #19-1 to mesothelin was determined using the 1:1 depletion corrected binding model.

MSLN mature form-his [2] = molecular target: T2, MSLN mature form-his (human, UniProt Q13421 296-598, biotinylated (site not stated) in the ELISA of Example 2; detected with SA-APC in the yeast single-clone FACS); assay: Direct-binding ELISA: scFv coated on the plate, biotinylated MSLN mature form-his titrated (M), streptavidin-HRP, A450
T2 construct: also called mesothelin mature form-his antigen; biotinylated MSLN-his; not shown: His tag
Description: (§1) 100 ng of the scFv protein purified in Example 1 was added to each well of a plate and refrigerated for 15 hours, thereby coating the plate with the protein. After incubation, each well was blocked with 200 μL of PBS (3% BSA) for 1 hour at room temperature. Biotinylated MSLN-his protein was serially diluted 1/5 from 10⁻⁶ M and then bound to the anti-MSLN scFv, coated on the ELISA plate, for 1 hour at room temperature. Each well was washed three times with PBST (0.05% tween 20) wash buffer, and then treated with HRP-conjugated streptavidin (Abcam) (diluted 40,000:1) for detection of biotinylated […] and incubated at room temperature for 1 hour. Each well was washed three times with PBST (0.05% tween20) wash buffer, and then treated with TMB and incubated at room temperature for 20 minutes. After treatment with 2M H₂SO₄, the absorbance at 450 nm was measured.

MSLN mature form-his [3] = molecular target: T2, MSLN mature form-his; assay: Direct-binding ELISA: scFv coated on the plate, biotinylated MSLN mature form-his titrated, streptavidin-HRP, A450; the half-maximal value is headed 'IC50 (M)' in the drawn table, row 'Mature MSLN'
Description: as §1

[4] = molecular target: T3, biotinylated mesothelin of SEQ ID NO: 1 (human, UniProt Q13421 296-598, biotinylated (site not stated)); assay: FACS of 293T cells transduced with the #19-1 CAR, biotinylated mature mesothelin plus PE-streptavidin (B4-A vs SSC-A)
T3 construct: also called biotinylated mature form of the mesothelin antigen
Description: The generated cells were cultured for 2 days. […] Then, biotin was fluorescently labeled using PE-conjugated streptavidin protein and FACS analysis was performed.

MSLN (ACRO) = molecular target: T4, MSLN (ACRO) (human, UniProt Q13421, PE-conjugated (site not given)); assay: FACS of PBNK cells transduced with the #19-1 CAR, stained with PE-conjugated MSLN antigen 'MSLN (ACRO)' (B4-A vs SSC-A); also printed as 26%; Mock (empty vector) cells 0.24
T4 construct: soluble antigen, PE-conjugated; also called PE-conjugated MSLN antigen
T4 sequence (Q13421 other isoform, or with tags, fused parts or gaps limits assumed): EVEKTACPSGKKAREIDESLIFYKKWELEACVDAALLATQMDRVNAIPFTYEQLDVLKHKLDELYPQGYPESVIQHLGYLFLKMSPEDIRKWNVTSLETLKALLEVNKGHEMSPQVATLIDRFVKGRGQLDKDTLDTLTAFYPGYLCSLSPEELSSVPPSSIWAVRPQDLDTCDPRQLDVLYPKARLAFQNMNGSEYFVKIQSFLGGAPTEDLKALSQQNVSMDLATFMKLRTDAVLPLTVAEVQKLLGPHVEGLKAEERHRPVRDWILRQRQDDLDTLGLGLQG
From the text: A mesothelin-specific chimeric antigen receptor construct virus was produced in the same manner as in Example 8 above, and then natural killer cells were used as immune 5 effector cells to be genetically engineered to express the chimeric antigen receptor. As such natural killer cells, PBMC (Human PB MNC) cells were purchased from StemCell, cultured for 10 days, and used after differentiation into PBNK cells. PBMC and PBNK cells, as well as lentivirus-transduced PBNK cells described below, were all cultured in NK MACS medium containing 100 µg/mL of streptomycin, 100 units/mL of penicillin, 10 ng/mL of rhIL-15, and 500 IU of rhIL-2. Culture of all cells was performed in a 5% CO₂ (95% air) environment at 37° C. For expression of the mesothelin-specific CAR, 5×10⁵ PBNK cells and the produced antigen receptor construct virus with an MOI of 2 were added to a 24-well plate, and then for induction of transduction, PGE2 (prostaglandin E2) and LentiBOOST (lentiviral gene transfer inducer) were used, thereby generating NK cells expressing the mesothelin-specific CAR. […]

Binder	Kd [1] [nM]	EC50 (read off the curve) (MSLN mature form-his [2]) [nM]	IC50 (MSLN mature form-his [3]) [nM]	% Parent in gate P4 (cells binding 'Mature MSLN') [4] [%]	% Parent in gate P24 (MSLN (ACRO)) [%]
B1	80.8				
B2		~8	9.43		
B3				54.8	25.6
B4		~3	2.43		
